Where no end group is shown, it is not given here. [ ]: non-standard residue; d: D form. The star is where a group is joined. 5FAM = O=C1OC2(c3ccc(O)cc3Oc3cc(O)ccc32)c2ccc(C(=O)*)cc21; Lys(Me3) = C[N+](C)(C)CCCC[C@H](N)C(=O)O
T1: Chromodomain Y-like protein 2 chromodomain
T1 construct: Chromodomain Y-like protein 2 (CDYL2), chromodomain; also called CDYL2 chromo; source: E. coli BL21, purified (glutathione resin); not shown: GST, N-terminal, kept
T1 sequence (Q8N8U2 whole entry, species assumed, looked up): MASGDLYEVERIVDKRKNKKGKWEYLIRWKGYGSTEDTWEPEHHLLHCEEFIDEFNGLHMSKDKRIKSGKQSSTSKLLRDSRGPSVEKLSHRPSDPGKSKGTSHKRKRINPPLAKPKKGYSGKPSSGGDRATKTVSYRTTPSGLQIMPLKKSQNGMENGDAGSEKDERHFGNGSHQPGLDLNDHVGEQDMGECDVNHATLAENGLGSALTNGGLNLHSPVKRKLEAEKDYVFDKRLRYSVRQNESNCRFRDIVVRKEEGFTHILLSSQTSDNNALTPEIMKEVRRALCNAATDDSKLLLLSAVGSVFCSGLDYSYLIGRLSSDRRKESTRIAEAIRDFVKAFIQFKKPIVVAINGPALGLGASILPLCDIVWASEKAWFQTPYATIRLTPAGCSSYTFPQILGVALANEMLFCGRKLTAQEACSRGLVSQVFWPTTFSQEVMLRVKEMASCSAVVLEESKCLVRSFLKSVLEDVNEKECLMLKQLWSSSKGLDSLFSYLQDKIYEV

T2: M Phase Phosphoprotein 8 chromodomain (UniProt Q99549 55-116)
T2 construct: M-phase phosphoprotein 8 (MPP8), chromodomain; also called MPP8 chromo; MPP8; source: E. coli BL21, purified (glutathione resin); not shown: GST, N-terminal, kept
T2 sequence: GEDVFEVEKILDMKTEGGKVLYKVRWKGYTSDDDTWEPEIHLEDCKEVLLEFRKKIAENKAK


Columns and labels:
[1] = molecular target: T1, Chromodomain Y-like protein 2 …; assay: fluorescence polarisation; protein serially diluted with 10 nM FAM peptide; 25 mM HEPES pH 7.5, 100 mM NaCl, 0.05% NP-40; anisotropy fitted by specific binding with Hill slope; settings: both partners purified
[2] = molecular target: T2, M Phase Phosphoprotein 8 chromodomain; assay: as above; settings: both partners purified

| Binder | Kd [1] [µM] | Kd [2] [µM] |
| --- | --- | --- |
| 5FAM-WAY[Lys(Me3)]TGK (also: flanking glycines, number not given here) [FAM-WAY(Kme3)TGK peptide] | 0.1 ± 0.0066 |  |
| 5FAM-WSK[Lys(Me3)]RRR (also: flanking glycines, number not given here) [FAM-WSK(Kme3)RRR peptide] |  | 6 |
